For test [1], the target named is lizard alpha-1 nAChR orthosteric site mimotope. The test is described as follows: BLI. (Biolayer interferometry detects binding as a change in optical thickness at a sensor tip.)
Test [2] concerns the target amphibian alpha-1 nAChR orthosteric site mimotope (Xenopus laevis). Briefly: BLI; Octet RED 96; […] (1 µg/mL) […]; running buffer 1X DPBS with 0.1% BSA and 0.05% Tween-20; […], in triplicate.

“alpha-cobratoxin (from UniProt P01391 1-71) (natural protein)” yielded an AUC (potency) above that on the rodent mimotope in test [1] of 30%. For the same substance, in test [2], the AUC (potency) above that on the lizard mimotope was found to be 50% and the AUC (potency) above that on the rodent mimotope is 98%.

The record behind these values is paper PMC7150784.
